Assay: SEC; HiLoad 16/60 Superdex 75 pg; protein purified by Ni2+-NTA injected at 0.5 mM

mClavGR2
area of the peak at 63 min (elutes as a dimer would), percent of monomer peak area: 6.7% vs. 25.8% of monomer peak area

mMaple
area of the peak at 63 min (elutes as a dimer would), percent of monomer peak area: 6.7% vs. 25.8% of monomer peak area
